# T1: UHRF1 tandem Tudor domain (TTD), residues 126-280 (human, UniProt Q96T88 126-280)
# T1 sequence (looked up): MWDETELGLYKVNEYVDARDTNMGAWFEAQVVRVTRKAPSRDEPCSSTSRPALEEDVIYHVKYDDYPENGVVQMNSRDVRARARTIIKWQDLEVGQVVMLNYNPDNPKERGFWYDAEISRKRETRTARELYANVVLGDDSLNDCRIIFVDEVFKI
# Tests used:
# [1] = molecular target: MPP8 50-118 (UniProt Q99549); test: fluorescence polarization titration; settings: reference: H3K9me3 peptide; sites S10
# [2] = molecular target: UHRF1 126-280 (UniProt Q96T88); test: biotin-peptide streptavidin pulldown, western blot; settings: sites S10
# [3] = molecular target: UHRF1 126-280 (UniProt Q96T88); test: histone peptide microarray; settings: sites S10
# [4] = molecular target: T1, UHRF1 tandem Tudor domain (TTD), …; test: NMR titration
molecule,measurement,setting,value
histone H3 1-20 (from UniProt P68431) H3K9me3S10p peptide,KD,[1],lost; reference 0.23
histone H3 (from UniProt P68431) H3K9me2S10p peptide,binding against the reference,[2]; reference: H3K9me2 peptide,same
same,binding against the reference,[3]; reference: H3K9me2 peptide,same
histone H3 (from UniProt P68431) H3K9me3S10p peptide,binding against the reference,[2]; reference: H3K9me3 peptide,same
same,binding against the reference,[3]; reference: H3K9me3 peptide,same
"ARTKQTARKST (not fully specified; trimethyl-lysine at 9; phosphoserine at 10) [doubly modified H3 peptide (residues 1-11, ARTKQTARKme3SpT)]",binding result,[4],binds
